Experimental data as given in patent US20090022669A1, “COMPOSITIONS FOR PROTEIN DELIVERY VIA THE PULMONARY ROUTE” (VAPOTRONICS, INC., priority 2001, published 2009).

Tests used:
[1] = Molecular assays (HPLC, mass spectrometry, isoelectric focusing, immunoassay) of recovered aerosol versus initial formulation; assay type: physicochemical
Source text: During testing, it was useful to ensure that the composition of the aerosol emanating from the device was the same in all discernable aspects as the formulation filled into the device.

[2] = Droplet size of the thermal inkjet aerosol measured by Malvern laser; assay type: physicochemical; conditions: hGH 2 mg/mL, 6% w/w PEG 3000, 0.1% w/v TWEEN 20, unbuffered
[3] = system: receptors introduced to the cells specific to the test protein; experiment: Transgenic cell bioassay of recovered aerosol versus formulation before aerosolization; assay type: cell-based; conditions: hGH 2 mg/mL, 6% w/w PEG 3000, 0.1% w/v TWEEN 20; thermal inkjet, aerosol condensed and recovered; FIG. 1
Procedure: Proteins were tested with a transgenic cell bioassays with receptors introduced to the cells specific to the test protein. These bioassays were appropriate for indicating the functional effectiveness of the protein. Molecular assays were performed to indicate the primary or tertiary structure of the molecule. Assays used included size exclusion high performance liquid chromatography, reverse phase high performance liquid chromatography, mass spectrometry, isoelectric focusing and immunoassay.
Each protein was formulated at a concentration that was calculated to be of clinical significance such that the plume of aerosol contained the required amount of therapeutic. Humectant was added to the protein formulation which was filled into an inkjet cartridge and fired from the cartridge.
Resistor surfaces and nozzles were inspected by Scanning Electron Microscopy to establish the cleanliness of the surfaces and subsequently the effectiveness of the humectant and surfactant. When humectant and surfactant concentrations were suitable, the aerosol from the device was collected, analyzed, and compared with the solution before aerosolization.
Human growth hormone (hGH) was formulated at 2 mg/mL with 6% w/w PEG 3000 and 0.1% w/v TWEEN® 20. The formulation was unbuffered and no additional salts were added to the formulation. […]

For Insulin, which “reverse-phase HPLC comparison (retention time, peak shape) before, after recovered and after repeated aerosolization” value ([1]; insulin 10 mg/mL, 6% w/v PEG 8000, 0.1% w/v TWEEN 80, thermal inkjet, FIG. 2) is on record?
The value was “no measurable differences”.

For Human growth hormone, which “average droplet size of formulation aerosol” value [2] is on record?
Its value is 8 μm.

What about the “bioassay comparison of formulation before and after aerosolization” value [3] of the same molecule?
The value was “no measurable difference”.

And the “HPLC comparison of formulation before and after aerosolization” value ([1]; hGH 2 mg/mL, 6% w/w PEG 3000, 0.1% w/v TWEEN 20, thermal inkjet, aerosol condensed and recovered)?
The value was “no measurable difference”.

For `CN1CCCC1c1cccnc1` (centres unmarked) [Nicotine, reference compound], which “comparison of solution during or after dosage (aerosolization)” value ([1]; nicotine up to 50% w/w in water with 0.1% w/v TWEEN 20) is on record?
Its value is “no measurable difference”.
